The labels stand for the following.
B1: Ysc84 (protein, UniProt P32793 1-468, looked up)
Protein YSC84: MGINNPIPRSLKSETKKAAKVLRSFVKPNQVFGADQVIPPYVLKRAKGLAIITVLKAGFLFSGRAGSGVIVARLKDGTWSAPSAIAMAGAGAGGMVGVELTDFVFILNSEEAVRSFSEFGTITLGGNVSVSAGPLGRSAEAAASASTGGVSAVFAYSKSKGLFAGVSVEGSAILERREANRKFYGDNCTSKMILSGRVKVPPAADPLLRILESRAFNFTRHDHDDNASGDDFYDDGQYSDNTSHYYDDIPDSFDSTDESSTRPNTRSSRRRGMSLGSRSRYDDDYDDDGYGRGRGYGDFDSEDEDYDYGRSPNRNSSRNRGPQIDRGTKPRANTRWEDDLYDRDTEYSRPNHSGRDYDNTRGNRRGYGRERGYSLGHGPTHPSNMSNVDDLSHKMSKTGLGNESTATNSATPTAVALYNFAGEQPGDLAFKKGDVITILKKSDSQNDWWTGRTNGKEGIFPANYVRVS
B2: Sdc25 (protein, UniProt P0CF34 1-1048, looked up)
Putative truncated guanine …: MPITSSPDLFYLNDCDVVYWYDLTRLVCHYVNLTERDLLANEREKFLTSLDLLTAQITYVYMLFRNLRLVEDSFKKTLKKLIYTLSRFSINANIWFHSTLFEEREAIASQKDPERRSPLLQSILGTFQKFHFLLRLLHFLSNPNELTILPQLTPRFFKDSFNTISWNNPFLRKRLNQHMSHDLPRQMIKAVAGASGIVAENIDEIPASKQGTSCSSETSHHSPSAPFQRRRRGTIFSNVSGSSDESDTIWSKRKKPYPLNEETLSLVRARKKQLDGKLKQMIKSANEYLSNTANFSKMLNFEMNFKTYEEVSGTIPIIDILENLDLTIFLNLRELGDENRVFDEDVAIDDEDEEFLKHSLSSLSYILSDYFNMKQYFHDVVVKFIIVAQHLTLEDPFVFSPMQNDLPTGYYEPMKPSSLNLDNAKDKKNGSQNTDIQEEEDEYEPDPDSLILFHNLINQDSDFNDLKFFNLAHVFKKSCDDYFDVLKLAIEFVNQLILERENLLNYAARMMKNNITELLLRGEEGYGSYDGGETAEKSDTNAVYADSDTKDNDEWRDSQVKLPRYLQREYDSELIWGSNNRIKGGSKHALISYLTDNEKKDLFFDITFLITFRSIFTTTEFLSYLISQYNLDPPEDLCFEEYNEWVTKKLIPVKCRVVEIMTTFFKQYWFLGYDEPDLATLNLDYFAQVAIKENITGSVELLKEVNQKFKHGNIQEATAPMKTLDQQICQDHYSGTLYSTTESILAVDPVLFATQLTILEHEIYCEITIFDCLQKIWKNKYTKSYGASPGLNEFISFANKLTNFISYSVVKEADKSKRAKLLSHFIFIAEYCRKFNNFSSMTAIISALYSSPIYRLEKTWQAVIPQTRDLLQSLNKLMDPKKNFINYRNELKSLHSAPCVPFFGVYLSDLTFTDSGNPDYLVLEHGLKGVHDEKKYINFNKRSRLVDILQEIIYFKKTHYDFTKDRTVIECISNSLENIPHIEKQYQLSLIIEPKPRKKVVPNSNSNNKSQEKSRDDQTDEGKTSTKKDRFPKFQLHKTKKKAPKVSK
B3: Pex13 (protein, UniProt P80667 1-386, looked up)
Peroxisomal membrane protein …: MSSTAVPRPKPWETSASLEEPQRNAQSLSAMMTSNQQDSRPTEESNNSNSASESAPEVLPRPAALNSSGTYGESNTIPGIYGNSNYGIPYDNNPYSMNSIYGNSIGRYGYGGSYYGNNYGSFYGGGYGAGAGYGMNNGSGLGESTKATFQLIESLIGAVTGFAQMLESTYMATHNSFFTMISVAEQFGNLKEMLGSFFGIFAIMKFLKKILYRATKGRLGIPPKNFAESEGSKNKLIEDFQKFNDSGTINSNEKATRRKISWKPLLFFLMAVFGFPYLLNKFITKLQTSGTIRASQGNGSEPIDPSKLEFARALYDFVPENPEMEVALKKGDLMAILSKKDPLGRDSDWWKVRTKNGNIGYIPYNYIEIIKRRKKIEHVDDETRTH
B4: Pin3 (protein, UniProt Q06449 2-215, looked up)
[PSI+] inducibility protein 3: SASLINRSLTNIRTELDFLKGSNVISNDVYDQINKSLPAKWDPANAPRNASPASLEYVEALYQFDPQQDGDLGLKPGDKVQLLEKLSPEWYKGSCNGRTGIFPANYVKPAFSGSNGPSNLPPPPQYKAQELQQIPTQNSAASSYQQQPFPPPSTNYYQQPQQQPQQAPPPQQQQQQQQHQSSHSHLKSFGSKLGNAAIFGAGASIGSDIVNNIF
B5: Sho1 (protein, UniProt P40073 1-367, looked up)
High osmolarity signaling …: MSISSKIRPTPRKPSRMATDHSFKMKKFYADPFAISSISLAIVSWVIAIGGSISSASTNESFPRFTWWGIVYQFLIICSLMLFYCFDLVDHYRIFITTSIAVAFVYNTNSATNLVYADGPKKAAASAGVILLSIINLIWILYYGGDNASPTNRWIDSFSIKGIRPSPLENSLHRARRRGNRNTTPYQNNVYNDAIRDSGYATQFDGYPQQQPSHTNYVSSTALAGFENTQPNTSEAVNLHLNTLQQRINSASNAKETNDNSNNQTNTNIGNTFDTDFSNGNTETTMGDTLGLYSDIGDDNFIYKAKALYPYDADDDDAYEISFEQNEILQVSDIEGRWWKARRANGETGIIPSNYVQLIDGPEEMHR
B6: Abp1-1 (protein, UniProt P15891 2-592, looked up)
Actin-binding protein: ALEPIDYTTHSREIDAEYLKIVRGSDPDTTWLIISPNAKKEYEPESTGSSFHDFLQLFDETKVQYGLARVSPPGSDVEKIIIIGWCPDSAPLKTRASFAANFAAVANNLFKGYHVQVTARDEDDLDENELLMKISNAAGARYSIQTSSKQQGKASTPPVKKSFTPSKSPAPVSKKEPVKTPSPAPAAKISSRVNDNNDDDDWNEPELKERDFDQAPLKPNQSSYKPIGKIDLQKVIAEEKAKEDPRLVQKPTAAGSKIDPSSDIANLKNESKLKRDSEFNSFLGTTKPPSMTESSLKNDDDKVIKGFRNEKSPAQLWAERKAKQNSGNAETKAEAPKPEVPEDEPEGEPDVKDLKSKFEGLAASEKEEEEMENKFAPPPKKSEPTIISPKPFSKPQEPVKAEEAEQPKTDYKKIGNPLPGMHIEADNEEEPEENDDDWDDDEDEAAQPPLPSRNVASGAPVQKEEPEQEEIAPSLPSRNSIPAPKQEEAPEQAPEEEIEEEAEEAAPQLPSRSSAAPPPPPRRATPEKKPKENPWATAEYDYDAAEDNELTFVENDKIINIEFVDDDWWLGELEKDGSKGLFPSNYVSLGN

The subject of the first test is Abp1 PPIs. Briefly: DHFR-PCA of Abp1 SH3-swapped baits (Fig. 2B-D, S2C, S2F). The note with it: number of interactions of Abp1 carrying the named SH3; sheet FigS2A-B. It counts as cell-based, Saccharomyces cerevisiae. In short, it runs like this:
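Interactions were scored by DHFR protein-fragment complementation. DHFR F[1,2]-tagged Abp1 strains, whose SH3 was swapped for yeast or human ortholog domains, were crossed on YPD at 30 °C for 48 h with a 1536-format array of 575 prey-DHFR F[3] strains and 40 negatives, giving four replicates per pair. PCA selection lasted 4 days after double diploid selection.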
Regarding B1, the “Interactions in Abp1” value came out at 108.

Turning to B2, the “Interactions in Abp1” value is on record as 10.

In the case of B3, the “Interactions in Abp1” value came out at 91.

As to B4, the “Interactions in Abp1” value turned out to be 99.

Take B5: the “Interactions in Abp1” value amounted to 81.

Regarding B6, the “Interactions in Abp1” value is reported as 86.

For the next test, the system named is Abp1 (1xFLAG). Briefly: Western blot expression level of Abp1 SH3-swapped baits (Fig. S2A-B). It counts as cell-based, Saccharomyces cerevisiae. Also noted: Flag (2 bands): unit not given here. The conditions noted are these: Flag signal relative to Abp1 WT (Abp1-1 to Abp1-4 = 1); sheet FigS2A-B. The protocol: Precultures of yeast cells expressing baits fused with the DHFR F[1,2]-FLAG were grown overnight at 30 °C with agitation in synthetic complete medium. The next day, cells were expanded in synthetic complete medium to reach their exponential phase (OD600 of around 1.0), pelleted, and frozen at −80 °C. The equivalent of fifty OD600 of cells was resuspended in ice-cold yeast lysis buffer (10 mM Tris-HCl pH 7.4, 150 mM NaCl, 0.5 mM EDTA (Millipore Sigma), 1% Triton X-100 (Millipore Sigma), and one cOmplete Mini Protease Inhibitor Cocktail (Millipore Sigma) per 10 mL) with […] glass beads (Millipore Sigma) and disrupted at 4 °C by 10 cycles of 2 min vortexing and 2 min cooldown. The equivalent of […] of lysed cells was used for the immunoprecipitation of the bait proteins using FLAG-M2 agarose beads (Millipore Sigma). The beads were incubated with the cell lysates for 120 min at 4 °C with a slow rotation, followed by three washes with the yeast lysis buffer.
Protein extracts and affinity-purified baits from yeast and human lysed cells were migrated on 10% polyacrylamide gels. The separated proteins were then transferred to nitrocellulose membranes. Validation of correct protein loading was done with ponceau staining of the membranes. Before the primary antibody incubations, membranes were blocked in 5% milk. Protein signals were detected on an Amersham Imager 600RGB (GE Healthcare) following the incubation of the membranes with the appropriate HRP-conjugated secondary antibodies and the Clarity Western ECL Substrate (Bio-Rad). The antibodies used in this study are M2-HRP (A8592, Sigma, 1/50,000), rabbit anti-FLAG (F7425, Sigma, 1/1000), PAK (SC-881, Santa Cruz, 1/200), p130cas/BCAR1 (SC-860, Santa Cruz, 1/200), actin (Cell Signaling Technology, 1/2000), anti-mouse HRP (Cell Signaling Technology, 1/10,000) and anti-rabbit HRP (Cell Signaling Technology, 1/10,000). The quantification of the WB signals was performed with the Amersham Imager 600 analysis software (GE Healthcare).
Background: In western blotting, separated proteins are transferred to a membrane and probed.
B1: the “Ratio Swap/WT Flag” value came to 0.8764.

Take B2: the “Ratio Swap/WT Flag” value turned out to be 0.3589.

For the molecule B3, the “Ratio Swap/WT Flag” value came out at 0.9802.

Turning to B4, the “Ratio Swap/WT Flag” value is 0.2499.

In the case of B5, the “Ratio Swap/WT Flag” value came to 0.6541.

As to B6, the “Ratio Swap/WT Flag” value came to 1.

Staying with this test, now noted: Western blot Flag signal (2 bands), Abp1 WT, SH3-deleted or SH3-swapped; sheet FigS2A-B.
Take B1: the “Flag (2 bands)” value is 203262.

In the case of B2, the “Flag (2 bands)” value is given as 83248.

Consider B3, for which the “Flag (2 bands)” value was 104696.

For B4, the “Flag (2 bands)” value amounted to 57952.

For B5, the “Flag (2 bands)” value stood at 151709.

B6: the “Flag (2 bands)” value turned out to be 96800.

These data come from paper PMC7954794, “Protein context shapes the specificity of SH3 domain-mediated interactions in vivo” (Nature Communications, 2021).
